Results taken from patent EP0730609B1.

Biological target: recombinant human IL4 (E. coli, non-glycosylated) (human) (UniProt P05112)
Assay: cell-based or functional assay

Chain of recombinant human IL4 (E. coli, non-glycosylated) (human) (P05112 25-153 limits assumed): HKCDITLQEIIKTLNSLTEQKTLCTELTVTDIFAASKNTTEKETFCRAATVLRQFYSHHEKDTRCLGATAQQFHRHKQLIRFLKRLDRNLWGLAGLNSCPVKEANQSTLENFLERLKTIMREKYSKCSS

B1: humanized 3B9 (IgG4) (antibody, from another filing, V domains shown)
VH: QVTLRESGPALVKPTQTLTLTCTFSGFSLSTSGMGVSWIRQPPGKGLEWLAHIYWDDDKRYNPSLKSRLTISKDTSRNQVVLTMTNMDPVDTATYYCARRETVFYWYFDVWGRGTPVTVSS
VL: IVMTQSPDSLAVSLGERATINCKASQSVDYDGDSYMNWYQQKPGQPPKLLIYAASNLESGVPDRFSGSGSGTDFTLTISSLQAEDVAVYYCQQSNEDPPRFGGGTKVEIKR
- B cell (inhibition of IL4-stimulated B lymphocyte proliferation), IC50: 0.079 nM
- IgE synthesis (inhibition of IL4-driven IgE secretion), IC50: 0.406 nM
- T cell (inhibition of IL4-stimulated T lymphocyte proliferation), IC50: 0.04 nM
